Test results as given in the supplement of paper PMC9170038.

Test system: MS2 coat protein
Assay: apparent KD of MS2 coat protein; designed switch direction (-1 OFF switch, 1 ON switch): -1; higher = weaker reporter binding
How it was run: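 The apparent KD reported per design is the median over clusters of curve fits to normalised cluster fluorescence. The RNA switches were transcribed on Illumina chips by stalled E. coli RNA polymerase. SNAP-549-labelled MS2 coat protein was titrated from 0.7 or 1.5 nM, doubling up to 3 µM, in Tris-HCl pH 7.5 buffer containing KCl, MgCl2, BSA, DTT, tRNA and Tween-20, with no input, 200 uM small-molecule ligand, or an oligonucleotide input.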

[1] = Eterna round: R95, input ligand: microRNA oligo, concentration not stated
[2] = input ligand: microRNA oligo, concentration not stated
[3] = Eterna round: R95, input ligand: FMN 200 uM
[4] = Eterna round: R95, input ligand: none

Row | Sequence | apparent KD of MS2 coat protein [1] [nM] | apparent KD of MS2 coat protein (input ligand: FMN 200 uM) [nM] | apparent KD of MS2 coat protein [2] [nM] | apparent KD of MS2 coat protein (input ligand: none) [nM] | also measured
1 | CGGAUGUGAGGAUAUACAUGAGGAUCACCCAUGUGAGCCAGCUAGAUGACUGGCUCGUGUAGAAGGCACGUCUG [Mat - Exclusion 3 - Mod of JL D92] (puzzle: Exclusion 3) | 12.1 | – | – | – | –
2 | UUUUAACAUGAGGAUCACCCAUGUGAGGAUAUCGAAAUUUAUAUUAAUAUUAAUAUAUCGAGAAGGCACAUUUU [JMF 24] (puzzle: Exclusion 1) | 74.9 | – | – | – | –
3 | AAAAAAUAAAAAACAAGCUACAUGAGGAUCACCCAUGUUACAAAAAUAAAAUAAAAAUAAAAUAAAAGUAAAAUGGG [Sensor V2: 75 Random] (Eterna round: R96, puzzle: Sensor v2, turn-off variant) | – | 145 | 78.2 | 98.8 | –
4 | GCGAAAGCAAACAGGUGAAACAUGAGGAUCACCCAUGUCCUCAUUUGCUCGUCUUAUAAGCUAUGCGAAAGCAUAGC [Sensor 3, v1 - 8] (puzzle: Sensor v3, turn-off variant 1) | 935 | – | – | – | apparent KD of MS2 coat protein [3]: 100 nM; apparent KD of MS2 coat protein [4]: 109 nM
5 | AUAUUAAGUGUGAGGAUAUGCUGGUCCUUGGAUCAGCAGAAGGCACAUGAGGAUCACCCAUGUAAUAUAUUUAA [Mat - Exclusion 4 - JL Mod - D48] (puzzle: Brourd's mod of Exclusion 4) | 87.2 | – | – | – | –
6 | AAUAACAGAGGAUAUACUGUUUUAUGUGUUUGUUAUUUUGAACAUGAGGAUCACCCAUGUAGAAGGCUGAAUAA [JMF 23] (Eterna round: R96, puzzle: Exclusion 2) | – | 23.9 | 18.8 | 25.3 | –
7 | CCACGACAUGAGGAUCACCCAUGUGAGGAUAUGGCCUGAAAAGCGUGAGCAGAAUCAAUCAGAAGGCGCGUGGG [salish99_ex1_r4_060] (Eterna round: R97, puzzle: Exclusion 1) | – | 73.2 | – | 45.7 | –
8 | GCUCCAGGAGGAUAUGCAUUCGAAAACAUGAGGAUCACCCAUGUAGGUGUCCUCGUGCGAGCAGAAGGCCUAAAAC [Rebebiso] (Eterna round: R97, puzzle: Exclusion 5) | – | 145 | – | 208 | –
9 | AGGCUGUCAGGAUAUCUGCGCCGUGGUGCGCGGCGUUAUAAAGAGAAGGGACAUGAGGAUCACCCAUGUCCUCA [EX4 B.25] (Eterna round: R97, puzzle: Exclusion 4) | – | 79.7 | – | 19.4 | –
10 | AACGACUGAGGAUAUACAUGAGGAUCACCCAUGUAUUGAAAUACGUGCUUGGUCAACUGUAGAAGGCAGAAUAA [Oresza] (puzzle: Exclusion 3) | 15.9 | – | – | – | –
11 | GACUAAACACGAGGAUAUGCCUGGGAAGAACAGGCAGAAGGCGUGACAUGAGGAUCACCCAUGUAGCCGGGCUAUUCUCGUGUG [Orlaes] (Eterna round: R96, puzzle: Exclusion NG 1) | – | 35.4 | 20.8 | 29.3 | –
12 | CCCUCACAUGAGGAUCACCCAUGUCAGGAUAUCUAGUCAGAUAGUGUAGCACUAAUGAAGAGAAGGGACGUAUA [Lezagees] (puzzle: Exclusion 1) | 16.9 | – | – | – | –
13 | CAUGGAUGUGAGCCGCAUUACAUGAGGAUCACCCAUGUCAACAAGCUUUUUGCUUGUCUUACGCGGCGGCACCAGAA [Getelexe] (Eterna round: R96, puzzle: Sensor v3, turn-off variant 1) | – | 13 | 6.81 | 14.9 | –
14 | UACAUGAGGAUCACCCAUGUUUUGUCGUGUAUGGUAUUUAUCUAGGAUAUCGUGUUAUUUAACCACGAGAAGGAGAGUAUCAAU [MOD3 Solution 21 by JMF] (Eterna round: R96, puzzle: Exclusion NG 3) | – | – | 21.5 | – | –
15 | UAUAUAUAGUAAGGAUAUGUAUUUAUUUGAUAAACAGAAGGUACUGACAUGAGGAUCACCCAUGUUUUAGUGUGGGCAUGUAGA [JMF's solution 20] (Eterna round: R96, puzzle: Exclusion NG 1) | – | – | 69.9 | – | –
16 | GCCGAUUAAGUCAGGAUAUACCUAUGGAUACAUAGGUAGAAGGGACAUGAGGAUCACCCAUGUUCCUCACCGGC [Fiskers BMX 4 - 15] (puzzle: Brourd's mod of Exclusion 4) | 12 | – | – | – | –
17 | GGAUCGAGUGUGAGGAUAUGCUGGUCCUUGGAUCAGCAGAAGGCACAUGAGGAUCACCCAUGUGAAGACGGUCC [Copy of R95 JL bmx4 3.16] (Eterna round: R97, puzzle: Brourd's mod of Exclusion 4) | – | 288 | – | 38.6 | –
18 | AAUAACGAGCCGGUCCUCCACAUGAGGAUCACCCAUGUGUUCGUCUUGUAAAGUACUAUCACGAAAGUGAUAGUACA [mod jandersonlee2] (Eterna round: R97, puzzle: Sensor, turn-off variant 1) | – | 746 | – | 858 | –

Row | Sequence | apparent KD of MS2 coat protein [1] [nM] | apparent KD of MS2 coat protein (input ligand: FMN 200 uM) [nM] | apparent KD of MS2 coat protein [2] [nM] | apparent KD of MS2 coat protein (input ligand: none) [nM] | also measured
19 | UUUUAUAGAGGAUAUGCGUGAAUAUAUAUUCAUGGAAAUUUACAUGAGGAUCACCCAUGUAGAAGGCUGUGUUU [LRO-Excl2-19-mod 090 by JR] (Eterna round: R97, puzzle: Exclusion 2) | – | 14.1 | – | 14.5 | –
20 | UAUAUAUAGUAAGGAUAUGUAAUUAUUUAAUAAACAGAAGGUACUGACAUGAGGAUCACCCAUGUUUUAGUGUGGGCAUGUAGA [JMF's solution 41] (Eterna round: R96, puzzle: Exclusion NG 1) | – | – | 69.4 | – | –
21 | AAUUAGCAAGCAAGAUCCCACAUGAGGAUCACCCAUGUGCUCGUCUUAUAAGGUACUGUGACGAGAGUCACGGUACC [Mat - Sensor, turn-off var - Eli Mod - D48] (Eterna round: R97, puzzle: Sensor, turn-off variant 1) | – | 51.5 | – | 50.5 | –
22 | AUAAUGUCAGGAUAUCAGUCGUACAGCCUCGGCUGUACGACUGAGAAGGGACAUGAGGAUCACCCAUGUGGUUA [E4/7-A2] (Eterna round: R97, puzzle: Exclusion 4) | – | 34.2 | – | 562 | –
23 | CUUUUGUGAGGAUAUUAGUAUUAAAUAAAUAAAAUUACUACUGAGAAGGCACAUGAGGAUCACCCAUGUUCCUC [salish99_ex4_r3_050] (puzzle: Exclusion 4) | 33.6 | – | – | – | –
24 | GACAGACGAGCGUGAGCCGACAUGAGGAUCACCCAUGUGCUCGUCUUAUAACGUACUGUCACGUUAGUGAUAGUGCG [Sensor v3, turn-off variant 1 (MOD of Eli's v1-13 v.4)] (puzzle: Sensor v3, turn-off variant 1) | 42.7 | – | – | – | apparent KD of MS2 coat protein [3]: 54.3 nM; apparent KD of MS2 coat protein [4]: 56.7 nM
25 | GAGAUGUGAGGAUAUCUAGACCGCGGAAGAGCUGCGGUCCGAGAGAAGGCACAUGAGGAUCACCCAUGUGAUGA [Attere] (puzzle: Exclusion 4) | 38.4 | – | – | – | –
26 | UGUUGUUACGUAGGAUAUGGCCAACAGGCCCUAGGAUAUGCGAAAGCAGAAGGAGCGCCAACAGGCGAGAAGGACGGGUUAACA [pwkr exNG2 2xF7 2xFMN.15] (Eterna round: R96, puzzle: Exclusion NG 2) | – | 50.2 | 78.2 | 60.5 | –
27 | AGAUGUCCGCAGGAUAUGCGGGCGAGGCCCUAAGCAGAAGGGCGGACAUGAGGAUCACCCAUGUGAGUAAAAGA [EX6 A.23] (Eterna round: R97, puzzle: Exclusion 6) | – | 94.2 | – | 25.2 | –
28 | GAUUAACAUGAGGAUCACCCAUGUGAGGAUAUACGAGAAUAGAUUUCGAUCAGAUAGAGUAGAAGGCACAGAUA [EX1 #1] (Eterna round: R97, puzzle: Exclusion 1) | – | 44.9 | – | 27 | –
29 | AAACGGCAGGGAGGAUAUGCUUGCCUGGGUCGUCUUCAAACAUGAGGAUCACCCAUGUAGUCGACGCAGAAGGCCCUCAAAGCC [JL ViennaUCT Ontiis mod 4] (Eterna round: R96, puzzle: Exclusion NG 2) | – | 42.9 | 8.85 | 16.7 | –
30 | AAAUUAGCAAGUAGGUCCGACAUGAGGAUCACCCAUGUAAUCUAAUAUUACGCUGCAUGAGAGUGCGCUCGUCUUAA [Sensor-V1 #18] (Eterna round: R97, puzzle: Sensor, turn-off variant 1) | – | 196 | – | 220 | –
31 | AAGAAACAUGAGGAUCACCCAUGUGAGGAUAUAGAAAAGAAAGAAAGAAAGAAAGAAACUAGAAGGCACAAAGA [It's All Mine] (puzzle: Exclusion 1) | 39.2 | – | – | – | apparent KD of MS2 coat protein [3]: 24.6 nM; apparent KD of MS2 coat protein [4]: 26.1 nM
32 | AACCUGAGGCAAAGCUUUAGGUGUACAUGAGGAUCACCCAUGUAGGAUAUGGUAGGCAAAGCUUACCAGAAGGACAUGUUAAUU [Mat - Exclusion NG 3 - Mod of JL - D38] (Eterna round: R96, puzzle: Exclusion NG 3) | – | 172 | 61.5 | 67 | –
33 | UGUGCGUAUGUGAGGAUAUGCUGGUCCUUGGAUCAGCAGAAGGCACAUGAGGAUCACCCAUGUGGUGUCGUACG [salish99_Bmod_Ex4_008] (puzzle: Brourd's mod of Exclusion 4) | 96.9 | – | – | – | –
34 | ACGCAUUGCCUUUGGUAGUGCGUAACAUGAGGAUCACCCAUGUAGGAUAUGGUAGGCUUUGCUUACCAGAAGGACAUUAUAAAC [Mat - Exclusion NG 3 - Mod of JL - D9] (Eterna round: R96, puzzle: Exclusion NG 3) | – | – | 21.9 | – | –
35 | UCAUGUUUAGAGGAUAUGAUUACUUUAGAGUAAUCAGAAGGCUAGACAUGAGGAUCACCCAUGUCAUAACAUGA [Exclusion 6 - B - 15:a] (puzzle: Exclusion 6) | 62 | – | – | – | apparent KD of MS2 coat protein [3]: 38.3 nM; apparent KD of MS2 coat protein [4]: 54.3 nM
